Values belong to the substance of their own block, whether it stands above or below them. Bridge positions count the residues as written; N and C are the ends. Square brackets hold non-standard residues; d marks the D form. Ends that are not written are not given here. dPra = C#CC[C@@H](N)C(=O)O
Legend:
[1] = target: Il10 (Homo sapiens, UniProt P22301); experiment: Binding of β-bodies with the target compound (Table 1), Il10; settings: Purpose Il10; tested for binding with the target compound
[2] = target: T1, Papain (Carica papaya, UniProt P00784); experiment: Binding of β-bodies with the target compound (Table 1), Papain; settings: Purpose Papain; tested for binding with the target compound
T1 sequence (P00784 134-345): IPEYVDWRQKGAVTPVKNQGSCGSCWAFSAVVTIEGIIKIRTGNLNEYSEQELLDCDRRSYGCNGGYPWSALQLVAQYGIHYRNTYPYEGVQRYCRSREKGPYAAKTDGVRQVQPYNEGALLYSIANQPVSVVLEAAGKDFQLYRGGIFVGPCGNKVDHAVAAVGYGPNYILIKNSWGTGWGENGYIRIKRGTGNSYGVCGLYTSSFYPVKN

[3] = tested on: HRMVRG-PEGA1900; experiment: Binding to hexapeptide beads, green fluorescence associated with the beads; settings: protein overexpressed in E. coli
Description: The fusion protein as well as EGFP was overexpressed in E. coli and purified from the cell lysate using a PEGA solid support with the hexapeptide partner, […] NO: 4), attached.

[4] = tested on: GFP; settings: GFP 60 nM, both bead types incubated at the same time
Protocol: GFP (60 nM) was incubated with different β-body beads at the same time, a first type of β-body beads specific for GFP (β-body SEQ ID NO: 1;
[…]) and a second type of β-body beads specific for IL1 (β-body SEQ ID NO: 5).

[5] = tested on: Il1; experiment: Selectivity assay GFP vs. IL1: beads incubated with ROX-IL1; assay type: binding; settings: ROX-IL1 100 nM, both bead types incubated at the same time
Description: The same experiment was repeated with IL1.

[6] = target: eGFP (Aequorea victoria, UniProt P42212, F64L/H231L/S65T); settings: Purpose eGFP; tested for binding with the target compound
[7] = target: Il2 (Homo sapiens, UniProt P60568); experiment: Binding of β-bodies with the target compound (Table 1), Il2; settings: Purpose Il2; tested for binding with the target compound
[8] = target: Interleukin 2 (Homo sapiens, UniProt P60568); experiment: Sandwich binding assay on PEGA beads, IL2 model
Protocol: For sandwich assays β-bodies identified as described in Examples 1 and 2 were synthesized by standard Fmoc-based solid phase peptide synthesis on biocompatible PEGA-beads (e.g. PEGA1900 which has a porosity allowing penetration of proteins up to 70 kDa). PEGA beads are available from Sigma Aldrich.
The sandwich binding assay was performed as follows: four beads with ligand C prepared as described above were added to 50 μL MilliQ water in a microtiter well containing 100 nM of the peptide D. The well was imaged with an ICX73 fluorescence microscope (Olympus) using a ROX filter cube.
The intensity of the fluorescence is a measure of the concentration of IL2 and the affinity of the interaction. The result obtained after 3 min. incubation is shown in FIG. 10 and after 20 min. incubation in FIG. 1D.

Chain of Interleukin 2 (P60568 21-153, species assumed): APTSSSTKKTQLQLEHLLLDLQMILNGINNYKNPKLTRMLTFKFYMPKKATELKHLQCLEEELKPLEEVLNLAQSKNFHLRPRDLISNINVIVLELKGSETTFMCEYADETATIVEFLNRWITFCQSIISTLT
Chain of Il10 (P22301 19-178, species assumed): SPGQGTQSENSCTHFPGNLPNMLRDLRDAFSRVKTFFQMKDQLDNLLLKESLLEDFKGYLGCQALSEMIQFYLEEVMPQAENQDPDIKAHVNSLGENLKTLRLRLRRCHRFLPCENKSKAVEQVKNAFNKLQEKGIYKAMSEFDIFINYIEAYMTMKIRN
Chain of Il2 (P60568 21-153, species assumed): as the sequence (P60568 21-153, species assumed) above

Binding [1]: High
Substance: TKTRTYTIPGERYTDTWA (Designed peptide) [SEQ ID NO: 21]

Substance: IHV-abu(N3)-VTTRTMPGHPIAGADA-pra-TG (IHV[dAbu(N3)]VTTRTMPGHPIAGADA[dPra]TG; triazole 4-21 (inferred); also: X4 listed as D-3-azido-2-aminobutanoic acid, mods say azidohomoalanine) [SEQ ID NO: 49]
Binding [2]: Medium

Binding [1]: High
Substance: ATNTLTMTWPGRTNTDTFTW (Designed peptide) [SEQ ID NO: 20]

Substance: EGFP: Enhanced Green Fluorescent Protein, overexpressed in E. coli; control without β-body
Binding to HRMVRG-PEGA1900 (green fluorescence associated with the beads) [3]: does not

Substance: TETKTVTITRPKMTWTFTHTVTG (Designed peptide; PEPTIDE (1)..(23) GFP) [SEQ ID NO: 1]
Binding of β-body beads to GFP [4]: underwent binding
Binding of β-body beads to IL1 [5]: only β-body beads specific for IL1 underwent binding
Binding [6]: High

Binding [7]: High
ROX fluorescence accumulation in the beads ([8]; ligand 3 beads + 100 nM ligand 4, Interleukin 2 50 nM, 3 and 20 min): positive signal
ROX fluorescence accumulation in the beads ([8]; ligand 3 beads + 100 nM ligand 4, without IL2 (interaction between the two β-bodies)): no signal
Substance: NTVTNTMTRPGVTETVTQTD (Designed peptide) [SEQ ID NO: 15]
ROX fluorescence accumulation in the beads ([8]; ligand 3 beads + 100 nM ligand 4, Interleukin 2 50 nM, 3 and 20 min, listed as C): accumulation of significant ROX fluorescence
ROX fluorescence accumulation in the beads ([8]; ligand 3 beads + 100 nM ligand 4, without IL2 (interaction between the two β-bodies), listed as C): No fluorescence accumulation over background
